Experimental data published in publication doi:10.1101/2022.01.15.476311.

Target: Toll-like receptor 2 (TLR2) purified protein (UniProt O60603)
Test: BLI

Chain of UniProt O60603 (O60603 21-588): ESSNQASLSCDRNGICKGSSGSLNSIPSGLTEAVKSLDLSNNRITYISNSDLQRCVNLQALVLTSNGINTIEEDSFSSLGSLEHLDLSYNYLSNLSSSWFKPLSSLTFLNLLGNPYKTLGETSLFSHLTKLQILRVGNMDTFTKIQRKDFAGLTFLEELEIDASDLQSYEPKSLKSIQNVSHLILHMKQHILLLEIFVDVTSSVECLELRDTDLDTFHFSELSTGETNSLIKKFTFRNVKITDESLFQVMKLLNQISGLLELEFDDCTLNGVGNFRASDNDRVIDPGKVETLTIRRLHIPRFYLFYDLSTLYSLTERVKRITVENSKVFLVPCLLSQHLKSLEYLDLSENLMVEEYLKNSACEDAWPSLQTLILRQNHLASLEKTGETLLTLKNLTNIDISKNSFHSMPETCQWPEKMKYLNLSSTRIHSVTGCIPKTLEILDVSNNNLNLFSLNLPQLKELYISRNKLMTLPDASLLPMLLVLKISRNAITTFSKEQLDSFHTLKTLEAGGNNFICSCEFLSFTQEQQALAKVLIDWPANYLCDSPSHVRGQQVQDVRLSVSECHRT

PAM3CSK4 (peptide) gave a Kd of 1670 nM.
